# Test results: patent US20170157251A1, “Bi-Specific Monovalent Diabodies That are Capable of Binding CD19 and CD3, and Uses Thereof” (MacroGenics, Inc., priority 2015, published 2017)
# B1: Control DART 2: control DART capable of binding to fluorescein and CD19 (protein)
# chain 1: ENVLTQSPATLSVTPGEKATITCRASQSVSYMHWYQQKPGQAPRLLIYDASNRASGVPSRFSGSGSGTDHTLTISSLEAEDAATYYCFQGSVYPFTFGQGTKLEIKGGGSGGGGEVKLDETGGGLVQPGRPMKLSCVASGFTFSDYWMNWVRQSPEKGLEWVAQIRNKPYNYETYYSDSVKGRFTISRDDSKSSVYLQMNNLRVEDMGIYYCTGSYYGMDYWGQGTSVTVSSASTKGEVAACEKEVAALEKEVAALEKEVAALEKGGGDKTHTCPPCPAPEAAGGPSVFLFPPKPKDTLMISRTPEVTCVVVDVSHEDPEVKFNWYVDGVEVHNAKTKPREEQYNSTYRVVSVLTVLHQDWLNGKEYKCKVSNKALPAPIEKTISKAKGQPREPQVYTLPPSREEMTKNQVSLWCLVKGFYPSDIAVEWESNGQPENNYKTTPPVLDSDGSFFLYSKLTVDKSRWQQGNVFSCSVMHEALHNHYTQKSLSLSPGK
# chain 2: QAVVTQEPSLTVSPGGTVTLTCRSSTGAVTTSNYANWVQQKPGQAPRGLIGGTNKRAPWTPARFSGSLLGGKAALTITGAQAEDEADYYCALWYSNLWVFGGGTKLTVLGGGGSGGGGEVKLDETGGGLVQPGRPMKLSCVASGFTFSDYWMNWVRQSPEKGLEWVAQIRNKPYNYETYYSDSVKGRFTISRDDSKSSVYLQMNNLRVEDMGIYYCTGSYYGMDYWGQGTSVTVSSASTKGKVAACKEKVAALKEKVAALKEKVAALKE
# modifications: Amino Acid Sequence of the First Polypeptide Chain of Control DART 2; Amino Acid Sequence of the Second Polypeptide Chain of Control DART 2
# Assays:
# [1] = tested on: cynomolgus monkey blood leukocytes; assay: Flow cytometry binding to cynomolgus monkey blood leukocytes (B and T cells); settings: 0.005 to 80 nM
# Procedure: (§1) Following incubation, binding to leukocytes was detected using a biotinylated anti-E-coil/K-coil (EK) mAb, which recognizes the EK coil heterodimerization region of the DART proteins and streptavidin-PE. […] Similarly, CD20 was used as a B cell marker instead of CD19. Therefore, in this study, the CD4+ and CD8+ gated events represent the T cell population and CD20+ gated events represent the B cell population.
# [2] = tested on: human blood leukocytes; assay: Flow cytometry binding to human blood leukocytes (B and T cells); settings: 0.005 to 80 nM
# Procedure: as §1
molecule,measurement,setting,value
B1,binding to B cells (CD20+) and T cells (CD4+ and CD8+),[1],only mono-specific binding to B cells
same,binding to B cells (CD20+) and T cells (CD4+ and CD8+),[2],only mono-specific binding to B cells
